Source: US20080227700A1, “Compositions and Methods for Treatment of Protein Misfolding and Protein Aggregation Diseases” (priority 2004, published 2008)

Legend:
[1] = tested on: βL crystallin; test: Chaperone assay, thermal aggregation of βL crystallin; type: biochemical; conditions: light scattering at λ=340 nm; 1:10 target protein:peptide; comparison among five peptides
Method: Chaperone Assays. Chaperone assays of the five peptides were performed using previously established methods with minor modifications. Muchowski et al., J Mol Biol 289: 397-411, 1999. A 1:1 monomeric molar ratio of chaperone: target protein was determined to be the optimum ratio and all subsequent chaperone assays of the β3 mutants were performed in triplicate and at a 1:1 monomeric molar ratio of chaperone: target protein in a 96-well ELISA micro-titer plate. […] of the chaperone and βL crystallin were mixed in a total volume of 200 μL buffer (5 mM PBS, pH 7.0). Light scattering at λ=340 nm was measured using a Multiskan MCC/340 plate reader before heating (time=0). After the first reading, the plate was heated at 50° C. and readings were taken at fifteen minute intervals for one hour.
The ability of the peptides to suppress the thermal aggregation of βL crystallin was measured spectrophotometrically as light scattering at λ=340 nm from solutions containing 1:10 monomeric molar ratio of target protein: peptide.

[2] = biological target: T1, γD crystallin (Homo sapiens, UniProt P07320); test: γD crystallin ThioflavinT fluorescence (fibrillization of γD crystallin); type: biochemical; conditions: 1:1 γD crystallin:peptide; for effect on the fibrillization of γD crystallin: ThioflavinT fluorescence after 72 hrs, comparison among αB crystallin and five peptides
T1 sequence (P07320 1-174): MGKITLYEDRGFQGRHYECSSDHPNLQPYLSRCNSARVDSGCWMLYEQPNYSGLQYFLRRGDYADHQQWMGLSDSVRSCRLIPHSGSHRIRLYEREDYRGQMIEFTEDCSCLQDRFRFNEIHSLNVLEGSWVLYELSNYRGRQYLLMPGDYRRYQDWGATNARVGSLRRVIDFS
Method: γD crystallin Thioflaviin T fluorescence. γD crystallin fibrils were formed in a similar way to that of γ crystalline. Meehan et al., J Biol Chem 279: 3413-3419, 2004. Peptides were dissolved to […] IN tfe AND DILUTED to 0.91 mM stock solutions in 10% TFE, pH 2.0.
3.5 mg of ThioflavinT was dissolved in 100 μL of 50 mM Glycine pH 8.5. A stock solution of 1 mg/ml (0.22 mM) Aβ was prepared. 20 μl Aβ, 5 μl chaperone, 2 μl ThioflavinT was mixed with 73 μL 10% TFE, pH 2.0. Fluorescence was read using a Beckman Coultier DTX 880 multimode detector. Samples were heated at 50° C. for 72 hours and fluorescence was read again.
The fibrillization of γD crystallin was measured as fluorescence of the fluorescent dye ThioflavinT from solutions containing 1:1 monomeric molar ratio of γD crystallin:peptide. In the absence of fibrils ThioflavinT had little or no fluorescence. The fluorescence of the ThioflavinT bound to γD crystallin fibrils in the absence of any other molecule after 72 hrs was set to 100%. […] Fibril formation=ΔfluorescenceγD crystallin (with chaperone)*100/ΔfluorescenceγD crystallin (without chaperone).

[3] = biological target: T2, equine alcohol dehydrogenase (ADH) (Equus caballus, UniProt P00327); test: Protein pin array interaction with alcohol dehydrogenase; type: binding; conditions: ADH as ligand, unheated and pre-heated
T2 construct: purchased
T2 sequence (P00327 whole entry): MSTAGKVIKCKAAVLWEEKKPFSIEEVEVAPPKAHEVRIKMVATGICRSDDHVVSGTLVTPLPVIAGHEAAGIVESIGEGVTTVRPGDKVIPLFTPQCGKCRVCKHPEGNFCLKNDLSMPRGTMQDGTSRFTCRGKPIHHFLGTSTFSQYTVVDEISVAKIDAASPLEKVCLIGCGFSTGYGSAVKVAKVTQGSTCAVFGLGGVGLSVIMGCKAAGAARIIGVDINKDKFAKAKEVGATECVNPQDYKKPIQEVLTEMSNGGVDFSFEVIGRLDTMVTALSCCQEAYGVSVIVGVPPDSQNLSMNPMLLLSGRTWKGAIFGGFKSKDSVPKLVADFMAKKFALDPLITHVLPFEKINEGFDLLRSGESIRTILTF
From the text: (§1) Synthesis of Pins, binding and detection of peptides binding to ligand proteins. The αB crystallin protein pin array was used to measure the interaction between peptides and chaperone target proteins including bovine βH crystallin, human γD crystallin, equine alcohol dehydrogenase (ADH) and porcine citrate synthase (CS) as described (FIG. 12). Ghosh and Clark, Protein Sci 14: 684-95, 2005.
(§2) Refer to the methods section for detailed protocols. The absorbance corresponding to the blue coloration in each well was measured at λ=450 nm and plotted against the amino acid sequence of the corresponding peptide in that well (FIGS. 13 and 14). Wells containing peptides that have strong interactions with target proteins are dark blue and wells containing peptides that have weak or no interaction with target proteins are light blue or clear.
(§3) The purity of the target proteins used in the pin array assays, bovine βH crystallin, human γD crystallin, equine alcohol dehydrogenase (ADH) and porcine citrate synthase (CS) were determined to be >90% by SDS-PAGE. In addition, primary antibodies for each target protein were specific to that target protein and consequently contaminating proteins that may bind to the peptides will not be detected. Eighty-four sequential and overlapping peptide fragments corresponding to residues 1-175 of human αB crystallin were synthesized employing a simultaneous peptide synthesis strategy developed by Geysen, called Multipin Peptide Synthesis (Mimotopes, San Diego, Calif.). Geysen, Southeast Asian J Trop Med Public Health 21: 523-33, 1990; Chin et al., J Org Chem 62: 538-539, 1997. Peptides were immobilized on derivatized polyethylene pins arranged in a microtiter ELISA plate format. Each peptide was eight amino acids in length and consecutive peptides were offset by two amino acids. All peptides were bound covalently to the surface of the plastic pins. The first peptide was […] for human αB crystallin.
(§4) Ghosh and Clark, Protein Sci 14: 684-95, 2005. […] The intensity of the blue color in the wells was measured at 450 nm using an ELISA plate-reader (BioTek, Winooski, Vt.). The intensity of the blue color (plotted on the X-axis) was a measure of the interaction between αB crystallin peptides (plotted on the Y-axis) and target proteins. To measure the effect of temperature on the interactions between interactive peptides and the target proteins, the target proteins were heated in a water-bath at 45° C. for fifteen minutes prior to use. Pin arrays are unable to differentiate between monomers, dimers or oligomers of target proteins that exist in solution. Instead, pin arrays are very sensitive detectors of interactions between individual peptides and the entire population (monomers, dimers or oligomers) of specific target proteins that may exist in solution under specific conditions. Each target protein was assayed two to five times. A single pin array was used for all experiments and no change in interactions was observed after more than thirty repetitions. The last three peptides of the protein pin array, 163REEKPAVT170, 165EKPAVTAA172, 167PAVTAAPK174, correspond to the epitope (163REEKPAVTAAPKK175) recognized by the primary antibody for human αB crystallin. A positive reaction is observed for these three peptides in the absence of human αB crystallin as the ligand due to direct binding of the anti-human αB crystallin antibody to these three peptides. The loss of efficiency for the pin array was measured using this assay. The loss of efficiency for the pin array was determined to be <5% by after more than 30 assays.
(§5) The Y-axis lists the amino acid sequences of the 8-mer peptides that are immobilized sequentially in a 96-well format. […]

[4] = biological target: T3, porcine citrate synthase (CS) (Sus scrofa, UniProt P00889); test: Protein pin array interaction with citrate synthase; type: binding; conditions: CS as target protein, unheated and pre-heated
T3 construct: purchased
T3 sequence (P00889 28-464): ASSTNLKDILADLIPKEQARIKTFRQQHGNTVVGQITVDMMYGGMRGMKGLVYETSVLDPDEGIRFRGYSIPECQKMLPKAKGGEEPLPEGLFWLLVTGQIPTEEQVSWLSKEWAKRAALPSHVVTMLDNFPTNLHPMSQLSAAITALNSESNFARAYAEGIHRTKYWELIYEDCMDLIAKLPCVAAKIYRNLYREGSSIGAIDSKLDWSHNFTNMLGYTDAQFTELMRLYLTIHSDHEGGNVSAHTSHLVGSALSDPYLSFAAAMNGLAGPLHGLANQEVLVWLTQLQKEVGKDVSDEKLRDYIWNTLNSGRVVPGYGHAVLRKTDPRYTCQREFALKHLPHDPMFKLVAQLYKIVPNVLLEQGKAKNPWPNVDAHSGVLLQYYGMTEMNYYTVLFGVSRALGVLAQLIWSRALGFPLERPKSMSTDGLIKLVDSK
From the text: as §1, §2, §3, §4, §5

[5] = biological target: beta amyloid (Homo sapiens, UniProt P05067); test: αB crystallin protein pin array screened for binding to beta amyloid; conditions: immobilized 8-mer peptide; absorption at 450 nm; assayed 2-5 times
From the text: αB Crystallin peptides that bind the target protein beta-amyloid were identified by screening an αB crystallin protein pin array, which provides a systematic method for evaluating interactions between peptides corresponding to residues 1-175 of human αB crystallin and selected target proteins in a parallel and simultaneous manner.
Peptides were synthesized on derivatized polyethylene pins arranged in a microtiter plate format. Each peptide was 8 amino acids in length and consecutive peptides were offset by 2 amino acids. All peptides were covalently bonded to the surface plastic pins. The first immobilized peptide was 1MDIAIHHP8 and the last peptide was 168PAVTAAPK175 for the human αB crystallin.
After synthesis, the pins were pre-coated at room temperature with 2% Bovine Serum Albumin (BSA), 0.1% Tween-20 and 0.1% Sodium azide in 10 mM phosphate buffered saline pH 7.2 (PBS) for 1 hr, and washed three times for 10 mins each with 10 mM PBS. To screen for binding to the peptides, fixed concentrations of the target protein beta amyloid was dissolved in 10 mM PBS, containing 0.05% Tween-20, added to each well and incubated for 1 hr at room temperature. The pin array was washed three times for 10 mins each with 10 mM PBS, containing 0.05% Tween-20. Monoclonal or polyclonal primary antibodies for the target protein beta amyloid was diluted into PBS buffer, added to each well and incubated for 1 hr at room temperature. Subsequently, the pin array was washed three times for 10 mins each with 10 mM PBS containing 0.05% Tween-20. Anti-rabbit horse-radish peroxidase conjugate secondary antibodies was diluted into PBS buffer, added to each well and incubated for 1 hr at room temperature. The pin array was washed three times for 10 mins each with 10 mM PBS containing 0.05% Tween-20. A chromogenic substrate of horse-radish peroxidase 3,3′,5,5′-Tetramethylbenzidine (TMB) (Pharmingen, San Diego, Calif.) which is colorless was added, and the reaction was carried out for 45 min.
The reaction was stopped by adding 6N sulfuric acid, which changes the color from blue to yellow. The absorption at 450 nm was measured by an ELISA reader (BioTek, Winooski, Vt.).
The pin array was regenerated by sonication in a water bath (VWR Aquasonic, West Chester, Pa.) with 100 mM PBS, containing 1% Sodium dodecyl sulfate (SDS) and 0.1% 2-Mercaptoethanol @ 60° C. for 10 mins. Next, the pin array was rinsed three times in deionized water, preheated to 60° C. for 30 secs each time, and shaken in water preheated at 60° C. for 30 min. The pin array was then washed with methanol at 60° C. for 15 secs and air-dried and stored @−20° C. for future use. Each target protein was assayed 2-5 times against the human αB crystallin protein pin array peptides to verify the reproducibility of the results. Peptides numbered 5, 7, 8, 9, 13, 19, 22, 23, 24, 27, 35, 38, 45, 51, 52, 56, 57, 61, 66, 71, 72, and 79 in Table 2 reproducibly tested positive in the protein pin assay.

[6] = biological target: T1, γD crystallin; test: Protein pin array interaction with γD crystallin; type: binding; parameters: purchased; conditions: unheated γD crystallin; similar peptide sequences with γD crystallin pre-heated at 45° C. for fifteen minutes
From the text: as §1, §2, §3, §4
(§6) The amino acid sequences of each 8-mer human αB crystallin peptide immobilized sequentially on 84 pins in a 96-well ELISA plate format are listed on the Y-axis. […]

[7] = tested on: bovine βH crystallin; test: Protein pin array interaction with βH crystallin; type: binding; conditions: unheated βH crystallin; similar maxima with βH crystallin pre-heated at 45° C. for fifteen minutes
From the text: as §1, §2, §3, §4, §6

[8] = biological target: Aβ (Homo sapiens, UniProt P05067); test: Aβ ThioflavinT fluorescence (fibrillization of Aβ); type: biochemical; conditions: ThioflavinT; 50° C. for 72 hours; 1:10 Aβ:peptide; no chaperone 1,324,974,048
Method: Aβ Thioflaviin T fluorescence. Aβ fibrils were grown in the presence and absence of αB crystallin and peptides in conditions similar to that previously described for the presence of αB crystallin. Bakthisaran et al., Biochem J, 2005. Peptides were dissolved to 9.1 mM in trifluorethanol (TFE) and diluted to 0.91 mM stock solutions in 50 mM PBS, 100 mM NaCl, pH 7.4. 3.5 mg of ThioflavinT was dissolved in 100 μl of 50 mM Glycine pH 8.5. A stock solution of 1 mg/ml (0.22 mM) Aβ was prepared. 20 μl Aβ, 50 μl chaperone, 2 μl ThioflavinT was mixed with 28 μl 50 mM PBS, 100 mM NaCl, pH 7.4. Fluorescence was read using a Beckman Coultier DTX 880 multimode detector. Samples were heated at 50° C. for 72 hours and fluorescence was read again.
The fibrillization of Aβ was measured as fluorescence of the fluorescent dye ThioflavinT from solutions containing 1:10 monomeric molar ratio of Aβ:peptide. In the absence of Aβfibrils, ThioflavinT had little or no fluorescence. The fluorescence of the ThioflavinT bound to Aβ fibrils in the absence of any other molecule after 72 hrs was set to 100%. […] Fibril formation=ΔfluorescenceAβ (with chaperone)*100/ΔfluorescenceAβ (without chaperone).

ERTIPITRE was tested, and the “effect on the thermal aggregation of βL crystallin (chaperone activity)” value [1] was “slightly lower than the HG peptide”.
With STSLSPFYLRPPSFLRAP the “effect on the thermal aggregation of βL crystallin (chaperone activity)” value [1] was “weakest effect” and the “effect on the fibrillization of γD crystallin” value [2] was “strongest effect”.
In the case of WIRRPFFP [Peptide 5], the “absorbance at λ=450 nm, interaction with ADH” value [3] is reported as “Maximum absorbances”, the “absorbance at λ=450 nm, interaction with CS” value [4] is reported as “absorbance maxima” and the “protein pin assay result with target protein beta amyloid” value [5] is reported as “positive”. The “absorbance at λ=450 nm, interaction with γD crystallin” value [6] was “maximum absorbances” and the “absorbance at λ=450 nm, interaction with βH crystallin” value [7] was “Maximum absorbances”.
For “αB crystallin: wild type recombinant human αB crystallin, a small heat shock protein and molecular chaperone”, the “Δfluorescence (Aβ)” value [8] was 318,471,040, the “effect on the fibrillization of γD crystallin” value [2] was “weakest effect” and the “Δfluorescence (γD crystallin)” value ([2]; ThioflavinT, 50° C. for 72 hours, no chaperone 888,803,840) was 1,079,141,056.
